Measured values reported in PMC8894376 (Nature Communications, 2022).

Target: Recombinant full-length human α-synuclein (1–140) (human, UniProt P37840 1-140)
Assay: turbidity of phase separation (absorbance at 350 nm)
Conditions: both partners purified

B1: PrP 23–144 (Y145Stop) (domain or fragment)
chain: KKRPKPGGWNTGGSRYPGQGSPGGNRYPPQGGGGWGQPHGGGWGQPHGGGWGQPHGGGWGQPHGGGWGQGGGTHSQWNKPSKPKTNMKHMAGAAAAGAVVGGLGGYMLGSAMSRPIIHFGSD
B1: binds.
